{"source": "patent US20200385465A1", "about": "(SHANGHAI NOVAMAB BIOPHARMACEUTICALS, published 2020)", "molecules": {"B1": {"name": "humanized CD47 single domain antibody (Nb1902) expressed from E. coli vector pMECS (VHH)", "VHH": "QVQLQESGGGLVQPGGSLRLSCAASGYAYTSDCMGWFRQTPGKGLEGVALIYTPGNSTNYADSVKGRFTISQDNSKSTVYLQMNSLRAEDTAMYYCAARRGACSLRLPFFYWGQGTLVTVSS", "notes": "also called humanized single domain antibody; not shown: C-terminal tag stretch from the pMECS vector (the HA tag used for detection and any other vector-encoded tag)"}, "B2": {"name": "control antibody B6H12 (antibody)", "chain": "EVQLVESGGDLVKPGGSLKLSCAASGFTFSGYGMSWVRQTPDKRLEWVATITSGGTYTYYPDSVKGRFTISRDNAKNTLYLQIDSLKSEDTAIYFCARSLAGNAMDYWGQGTSVTVSSGGGGSGGGGSGGGGSDIVMTQSPATLSVTPGDRVSLSCRASQTISDYLHWYQQKSHESPRLLIKFASQSISGIPSRFSGSGSGSDFTLSINSVEPEDVGVYYCQNGHGFPRTFGGGTKLEIK"}}, "key": {"[1]": {"molecular_target": "T1, human full-length CD47 protein (human, UniProt Q08722 19-323)", "T1 construct": "whole, on cells; also called CD47 stably transferred cells; CD47 on the surface of erythrocyte", "assay": "flow cytometry blocking assay, antibody together with hSIRPa (ECD)-Fc-Biotin on CD47 stable cells, SA-PE detection"}, "[2]": {"molecular_target": "T1, human full-length CD47 protein", "assay": "flow cytometry blocking assay, antibody together with 5 ug hSIRPa (ECD)-Fc-Biotin on hCD47 stable cells, SA-PE detection"}, "[3]": {"molecular_target": "T2, CD47 (rat), coated antigen protein (rat, UniProt P97829 19-140, limits assumed)", "T2 construct": "also called rat CD47; murine-derived CD47", "T2 sequence (looked up)": "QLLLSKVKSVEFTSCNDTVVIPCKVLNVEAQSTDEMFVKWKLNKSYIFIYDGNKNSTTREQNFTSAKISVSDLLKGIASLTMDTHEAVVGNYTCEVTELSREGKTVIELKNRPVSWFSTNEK", "assay": "ELISA, coated antigen, anti-HA and alkaline phosphatase detection", "description": "(§1) The specificity of the single domain antibody was determined based on the absorption value."}, "[4]": {"molecular_target": "T3, CD47 (mouse), coated antigen protein (mouse, UniProt Q61735 19-140, limits assumed)", "T3 construct": "also called mouse CD47; murine-derived CD47", "T3 sequence (looked up)": "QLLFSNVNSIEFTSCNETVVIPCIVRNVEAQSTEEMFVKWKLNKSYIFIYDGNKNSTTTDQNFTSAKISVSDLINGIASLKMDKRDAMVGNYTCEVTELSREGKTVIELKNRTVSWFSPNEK", "assay": "ELISA, coated antigen, anti-HA and alkaline phosphatase detection", "description": "as §1"}, "[5]": {"molecular_target": "T1, human full-length CD47 protein", "assay": "competition flow cytometry on CD47 stably transfected cells, antibody titrated against 5 µg hSIRPa (ECD)-Fc-Biotin", "description": "100 uL was added in each sample, and a negative control (hIgG4) was set at the same time. […] (2) The cells were washed twice with PBS, SA-PE of eBioscience was added. It was incubated for 20 min at 4° C., and the cells were washed twice with PBS and then detected by flow cytometry (BD FACS Calibur), using graphpad prism 6 software for data processing."}}, "data": [{"molecule": "negative control antibody", "values": [{"measurement": "percent of cells positive for SIRPa-biotin (quadrant Q2) in the presence of the antibody", "setting": "[1]", "result": 97.3, "unit": "%"}, {"measurement": "percent of cells positive for SIRPa-biotin (quadrant Q2) in the presence of the antibody at 1ug/ml", "setting": "[2]", "result": 97.2, "unit": "%"}]}, {"molecule": "B1", "values": [{"measurement": "binding result", "setting": "[3]", "result": "no binding"}, {"measurement": "binding result", "setting": "[4]", "result": "no binding"}]}, {"molecule": "B2", "values": [{"measurement": "IC50", "setting": "[5]", "result": 12.3, "unit": "µg/mL"}]}]}
